Test results as given in the supplement of paper PMC12783771.
± gives the standard deviation of the averaged measurements.

B1: library; numbered along this chain (parent)
chain: MNIQIGELAKRTACPVVTIRFYEQEGLLPPPGRSRGNFRLYGEEHVERLQFIRHCRSLDMPLSDVRTLLSYRKRPDQDCGEVNMLLDEHIRQVESRIGALLELKHHLVELREACSGARPAQSCGILQGLSDCVCDTRGTTAHPSD

Key:
[1] = variants of: B1; test: sfGFP reporter fluorescence (15 h) (µM FITC); higher = higher leak; conditions: library round: Round 0; ligand: none
Procedure, shortened: (§1)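 PCR-made linear PbrR templates (Echo-normalized to 5 nM) were expressed in BL21 Star (DE3) extract (PANOx-SP) with pPbrR-sfGFP reporter plasmid and 30 μg/mL GamS. Reactions were 1 μL, Echo-assembled, with 1 µM lead chloride, 30 µM zinc acetate or no metal, incubated 15 hr at 30 °C. Endpoint sfGFP fluorescence (485/528 nm, Synergy Neo2) was converted to µM FITC via standard curves in 50 mM sodium borate pH 8.5. Up to three biological replicates.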

[2] = variants of: B1; test: sfGFP reporter fluorescence (15 h) (µM FITC); higher = stronger transcriptional activation; conditions: library round: Round 0
Procedure, shortened: as §1

| Variant | sfGFP reporter fluorescence [1] | sfGFP reporter fluorescence ([2]; ligand: 1 µM Pb) | sfGFP reporter fluorescence ([2]; ligand: 30 µM Zn) |
| --- | --- | --- | --- |
| E43N | 0.0577 ± 0.006 | 0.0828 ± 0.0036 | 1.21 ± 0.02 |
| E43P | 0.05736 ± 0.00026 | 0.0674 ± 0.0093 | 0.7191 ± 0.0047 |
| E43Q | 0.0614 ± 0.0018 | 0.076 ± 0.0029 | 1.16 ± 0.18 |
| E43R | 0.0643 ± 0.00078 | 0.111 ± 0.025 | 2.24 ± 0.12 |
| E43S | 0.06102 ± 0.00026 | 0.0889 ± 0.015 | 1.41 ± 0.17 |
| E43T | 0.06341 ± 0.00052 | 0.104 ± 0.0054 | 1.5 ± 0.14 |
| E43V | 0.0605 ± 0.0015 | 0.0883 ± 0.014 | 1.17 ± 0.089 |
| E43W | 0.061 ± 0.0013 | 0.0995 ± 0.021 | 1.36 ± 0.2 |
| E43Y | 0.0599 ± 0.00078 | 0.0924 ± 0.017 | 1.2 ± 0.058 |
| E44A | 0.0612 ± 0.0015 | 0.0746 ± 0.0013 | 0.495 ± 0.044 |
| H45A | 0.0599 ± 0.0018 | 0.07275 ± 0.00026 | 0.687 ± 0.088 |
| V46A | 0.0619 ± 0.0031 | 0.0757 ± 0.0023 | 0.682 ± 0.097 |
| V46C | 0.0531 ± 0.0026 | 0.0781 ± 0.0021 | 0.574 ± 0.01 |
| V46D | 0.0581 ± 0.0034 | 0.0612 ± 0.0015 | 0.0735 ± 0.0013 |
| V46E | 0.0579 | 0.0806 ± 0.0015 | 0.724 ± 0.053 |
| V46F | 0.05626 ± 0.00026 | 0.0814 ± 0.0015 | 0.66 ± 0.074 |
| V46G | 0.05498 ± 0.00052 | 0.059 ± 0.0021 | 0.106 ± 0.013 |
| V46H | 0.0557 ± 0.0015 | 0.0738 ± 0.00078 | 0.345 ± 0.039 |
| V46I | 0.0548 ± 0.006 | 0.0711 ± 0.0062 | 0.831 ± 0.17 |
| V46K | 0.0599 ± 0.00078 | 0.0922 ± 0.0023 | 0.908 ± 0.097 |
| V46L | 0.0542 ± 0.0047 | 0.0847 ± 0.015 | 0.811 ± 0.057 |
| V46M | 0.0563 ± 0.0018 | 0.09 ± 0.0075 | 1 ± 0.1 |
| V46N | 0.0535 ± 0.0021 | 0.0665 ± 0.0096 | 0.108 ± 0.0023 |

| Variant | sfGFP reporter fluorescence [1] | sfGFP reporter fluorescence ([2]; ligand: 1 µM Pb) | sfGFP reporter fluorescence ([2]; ligand: 30 µM Zn) |
| --- | --- | --- | --- |
| V46P | 0.0537 ± 0.0023 | 0.0592 ± 0.0039 | 0.0641 ± 0.0042 |
| V46Q | 0.0544 ± 0.0039 | 0.0858 ± 0.001 | 0.755 ± 0.052 |
| V46R | 0.0594 ± 0.001 | 0.08704 ± 0.00026 | 0.75 ± 0.054 |
| V46S | 0.055 ± 0.0021 | 0.0687 ± 0.00078 | 0.306 ± 0.059 |
| V46T | 0.057 ± 0.0013 | 0.07733 ± 0.00052 | 0.419 ± 0.0078 |
| V46W | 0.0583 ± 0.0021 | 0.0757 ± 0.0034 | 0.429 ± 0.0044 |
| V46Y | 0.0588 ± 0.00078 | 0.0861 ± 0.0067 | 0.6826 ± 0.0049 |
| E47A | 0.0612 | 0.0779 ± 0.0049 | 0.791 ± 0.039 |
| R48A | 0.0546 ± 0.0015 | 0.0541 ± 0.0023 | 0.3984 ± 0.0031 |
| L49A | 0.0619 ± 0.001 | 0.0614 ± 0.0013 | 0.0969 ± 0.011 |
| Q50A | 0.06615 ± 0.00026 | 0.0891 | 0.743 ± 0.019 |
| F51A | 0.06597 ± 0.00052 | 0.0621 ± 0.0023 | 0.16 ± 0.0083 |
| I52A | 0.06341 ± 0.00052 | 0.0596 ± 0.0023 | 0.077 ± 0.0015 |
| R53A | 0.0614 ± 0.0018 | 0.06652 ± 0.00026 | 0.487 ± 0.074 |
| H54A | 0.05626 ± 0.00026 | 0.0552 ± 0.0029 | 0.07074 ± 0.00052 |
| C55A | 0.0647 ± 0.0013 | 0.126 ± 0.013 | 1.28 ± 0.066 |
| C55D | 0.0608 ± 0.0021 | 0.061 ± 0.0018 | 0.0592 ± 0.00078 |
| C55E | 0.061 ± 0.0013 | 0.06029 ± 0.00026 | 0.0607 ± 0.0013 |
| C55F | 0.0634 ± 0.001 | 0.0674 ± 0.001 | 0.0876 |
| C55G | 0.0568 ± 0.0015 | 0.057 ± 0.00078 | 0.07 ± 0.0015 |
| C55H | 0.0585 ± 0.00078 | 0.06139 ± 0.00026 | 0.0574 ± 0.00078 |
| C55I | 0.0583 ± 0.0026 | 0.0616 | 0.112 ± 0.0057 |
| C55K | 0.0608 ± 0.0015 | 0.061 ± 0.0018 | 0.0607 ± 0.00078 |

| Variant | sfGFP reporter fluorescence [1] | sfGFP reporter fluorescence ([2]; ligand: 1 µM Pb) | sfGFP reporter fluorescence ([2]; ligand: 30 µM Zn) |
| --- | --- | --- | --- |
| C55L | 0.0608 ± 0.001 | 0.0702 ± 0.0013 | 0.173 ± 0.0091 |
| C55M | 0.0645 ± 0.0015 | 0.0733 ± 0.0026 | 0.139 ± 0.018 |
| C55N | 0.0594 ± 0.0015 | 0.0583 ± 0.0015 | 0.057 ± 0.0034 |
| C55P | 0.0596 ± 0.00078 | 0.0597 | 0.05846 ± 0.00026 |
| C55Q | 0.0594 ± 0.001 | 0.0588 ± 0.0013 | 0.0585 ± 0.00078 |
| C55R | 0.0596 ± 0.0018 | 0.0592 ± 0.0013 | 0.0572 |
| C55S | 0.06029 ± 0.00026 | 0.066 ± 0.001 | 0.203 ± 0.019 |
| C55T | 0.0577 ± 0.00078 | 0.0594 ± 0.0042 | 0.129 ± 0.0018 |
| C55V | 0.0629 ± 0.0029 | 0.0773 ± 0.0047 | 0.273 ± 0.0029 |
| C55W | 0.0731 ± 0.0029 | 0.0935 ± 0.0015 | 0.136 ± 0.0083 |
| C55Y | 0.0601 ± 0.0021 | 0.0623 ± 0.001 | 0.06011 ± 0.00052 |
| R56A | 0.0616 | 0.0616 ± 0.0026 | 0.1308 ± 0.00052 |
| S57A | 0.059 ± 0.0015 | 0.0575 ± 0.001 | 0.184 ± 0.011 |
| L58A | 0.0601 ± 0.001 | 0.05681 ± 0.00052 | 0.0563 ± 0.0049 |
| L58C | 0.05846 ± 0.00026 | 0.05772 ± 0.00026 | 0.06121 ± 0.00052 |
| L58D | 0.0599 ± 0.0023 | 0.0623 | 0.0608 ± 0.0015 |
| L58E | 0.0619 ± 0.001 | 0.0625 ± 0.0013 | 0.064 ± 0.0018 |
| L58F | 0.0592 ± 0.0018 | 0.0731 ± 0.0013 | 0.261 ± 0.027 |
| L58G | 0.0548 ± 0.00078 | 0.0548 ± 0.0013 | 0.052 ± 0.001 |
| L58H | 0.05901 ± 0.00052 | 0.0594 ± 0.0021 | 0.0656 ± 0.0036 |
| L58I | 0.05443 ± 0.00026 | 0.0546 ± 0.001 | 0.05864 ± 0.00052 |
| L58K | 0.0629 ± 0.0013 | 0.06908 ± 0.00026 | 0.0735 ± 0.0034 |
| L58M | 0.0583 | 0.0581 ± 0.00078 | 0.0748 ± 0.0015 |

| Variant | sfGFP reporter fluorescence [1] | sfGFP reporter fluorescence ([2]; ligand: 1 µM Pb) | sfGFP reporter fluorescence ([2]; ligand: 30 µM Zn) |
| --- | --- | --- | --- |
| L58N | 0.05644 ± 0.00052 | 0.05791 ± 0.00052 | 0.0548 ± 0.0023 |
| L58P | 0.0594 ± 0.0015 | 0.0601 ± 0.001 | 0.0605 ± 0.001 |
| L58Q | 0.0596 ± 0.0018 | 0.05901 ± 0.00052 | 0.0711 ± 0.0021 |
| L58R | 0.06139 ± 0.00026 | 0.0651 ± 0.0029 | 0.0662 ± 0.00078 |
| L58S | 0.05717 ± 0.00052 | 0.0586 | 0.0563 ± 0.0013 |
| L58T | 0.0588 ± 0.0018 | 0.05864 ± 0.00052 | 0.05644 ± 0.00052 |
| L58V | 0.0583 ± 0.001 | 0.0568 ± 0.0021 | 0.061 ± 0.0018 |
| L58W | 0.0629 ± 0.0034 | 0.0685 ± 0.0026 | 0.076 ± 0.0023 |
| L58Y | 0.0784 ± 0.0062 | 0.229 ± 0.011 | 0.606 ± 0.036 |
| D59A | 0.0693 ± 0.0036 | 0.0755 ± 0.001 | 0.291 ± 0.014 |
| M60A | 0.0643 ± 0.0029 | 0.0619 ± 0.001 | 0.0713 ± 0.007 |
| M60C | 0.06029 ± 0.00026 | 0.06304 ± 0.00052 | 0.06615 ± 0.00026 |
| M60D | 0.0616 ± 0.001 | 0.0619 ± 0.0015 | 0.063 ± 0.0015 |
| M60E | 0.107 ± 0.00052 | 0.463 ± 0.039 | 1.67 ± 0.012 |
| M60F | 1.94 ± 0.16 | 2.94 ± 0.1 | 2.92 ± 0.028 |
| M60G | 0.0561 ± 0.0015 | 0.05772 ± 0.00026 | 0.0588 ± 0.0013 |
| M60H | 0.0623 ± 0.0015 | 0.0614 ± 0.00078 | 0.0638 ± 0.0015 |
| M60I | 0.12 ± 0.0029 | 0.319 ± 0.03 | 2.58 ± 0.063 |
| M60K | 0.0605 ± 0.001 | 0.061 ± 0.0018 | 0.0625 ± 0.0029 |
| M60L | 0.1063 ± 0.00052 | 0.295 ± 0.035 | 2.8 ± 0.031 |
